Legend:
NC(CCCCC(=O)O)C(=O)O = test: purified protein; settings: similar conditions to wild-type assay; 2-APA 0-10 mM; racemic substrate
[1] = test system: N[C@H](CCC[C@H](N)C(=O)O)C(=O)O; test: purified protein; settings: 100 mM TEA-HCl pH 7.8, PLP, 10 mM MgCl2, 30 C, DAP 0-10 mM

Row | Substance | Km (NC(CCCCC(=O)O)C(=O)O) | kcat (NC(CCCCC(=O)O)C(=O)O) [s⁻¹] | Km [1] | kcat [1] [s⁻¹]
1 | TmDAPDC (diaminopimelate decarboxylase from T. maritima) (Thermotoga maritima MSB8; E315T) | 0.32 (0.03) mM | 0.2 |  | 
2 | TmDAPDC (diaminopimelate decarboxylase from T. maritima) (Thermotoga maritima MSB8) |  |  | 0.27 (0.06) mM | 0.075

Reference: paper PMC8277567, “Thermostable D-amino acid decarboxylases derived from Thermotoga maritima diaminopimelate decarboxylase” (Protein Engineering, Design and Selection, 2021)
